{
  "source": "paper PMC6965710",
  "assay_in_all_cases": "EMSA",
  "conditions_in_all_cases": "8-oxo-7,8-dihydroguanosine at positions 3,7,11,15,19,23",
  "key": {"[1]": {"biological_target": "T1, PNPase GFT S76G;F78T (Escherichia coli K12) (UniProt P05055)", "T1 sequence": "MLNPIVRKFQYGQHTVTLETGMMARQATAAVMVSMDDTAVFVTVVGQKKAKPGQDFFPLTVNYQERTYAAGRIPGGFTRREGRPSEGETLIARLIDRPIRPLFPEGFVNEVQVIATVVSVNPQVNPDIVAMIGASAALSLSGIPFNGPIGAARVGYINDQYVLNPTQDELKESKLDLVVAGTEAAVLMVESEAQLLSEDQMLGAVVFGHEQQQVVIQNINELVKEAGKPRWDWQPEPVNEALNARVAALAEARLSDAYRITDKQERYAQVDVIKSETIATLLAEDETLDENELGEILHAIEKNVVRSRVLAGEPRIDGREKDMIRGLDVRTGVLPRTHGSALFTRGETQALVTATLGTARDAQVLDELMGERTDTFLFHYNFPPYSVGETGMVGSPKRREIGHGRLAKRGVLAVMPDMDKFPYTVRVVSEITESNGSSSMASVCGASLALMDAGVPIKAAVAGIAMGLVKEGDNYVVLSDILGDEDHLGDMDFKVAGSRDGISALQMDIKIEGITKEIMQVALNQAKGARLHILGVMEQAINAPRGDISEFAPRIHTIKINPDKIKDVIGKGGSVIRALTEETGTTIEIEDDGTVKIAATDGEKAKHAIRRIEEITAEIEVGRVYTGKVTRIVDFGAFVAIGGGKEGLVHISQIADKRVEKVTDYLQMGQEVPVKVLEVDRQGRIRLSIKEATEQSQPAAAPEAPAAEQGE"}, "[2]": {"biological_target": "T2, PNPase NFH S76N;F78H (Escherichia coli K12) (UniProt P05055)", "T2 sequence": "T1 sequence with G76N, T78H"}, "[3]": {"biological_target": "T3, PNPase NYM S76N;F77Y;F78M (Escherichia coli K12) (UniProt P05055)", "T3 sequence": "T1 sequence with G76N, F77Y, T78M"}, "[4]": {"biological_target": "T4, PNPase wild type (SFF) (Escherichia coli K12) (UniProt P05055)", "T4 sequence": "T1 sequence with G76S, T78F"}},
  "note": "Substitutions are numbered along the chain they refer to.",
  "data": [
    {"sequence": "NNGNNNGNNNGNNNGNNNGNNNGN [8-oxoG RNA 24-mer [NN(8-oxoG)N]6]", "values": [
      {"measurement": "binding signal (Kd ratio unmodified/8-oxoG (selectivity))", "setting": "[1]", "value": 2.3},
      {"measurement": "binding signal (Kd ratio unmodified/8-oxoG (selectivity))", "setting": "[2]", "value": 2.5},
      {"measurement": "binding signal (Kd ratio unmodified/8-oxoG (selectivity))", "setting": "[3]", "value": 2.8},
      {"measurement": "binding signal (Kd ratio unmodified/8-oxoG (selectivity))", "setting": "[4]", "value": 1.8}
    ]}
  ]
}
